B1: anti-HMG1 antibody G4 (antibody, V domains shown)
VH: EVQLLESGGGLVQPGGSLRLSCAASGFTFSWYDMTWVRQAPGKGLEWVSSISPSGGYTKYADSVKGRFTISRDNSKNTLYLQMNSLRAEDTAVYYCTTEFYDYLDVWGKGTTVTVSS
VL: DIQMTQSPGTLSLSPGEGATLSCRASQSVSSTYLAWYQQKPGQAPRLLIYEASKRATGTPARFSGSGSGTDFTLSISSLEPEDFAVYYCQHRHNWPPQWTFGQGTKVEVK
notes: also called ATCC PTA-6258
B2: anti-HMG1 antibody S6 (antibody, V domains shown)
VH: EVQLLESGGGLVQPGGSLRLSCAASGFTFSWYDMSWVRQAPGKGLEWVSRISPSGGYTMYADSVKGRFTISRDNSKNTLYLQMNSLRAEDTAVYYCARLEVGATSGGTAFDIWGQGTMVTVSS
VL: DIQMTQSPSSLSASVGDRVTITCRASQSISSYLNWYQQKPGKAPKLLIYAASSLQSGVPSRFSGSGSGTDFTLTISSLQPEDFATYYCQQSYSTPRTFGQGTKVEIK
notes: also called ATCC PTA-6143
B3: anti-HMG1 antibody S16 (antibody, V domains shown)
VH: EVQLLESGGGLVQPGGSLRLSCAASGFTFSWYSMLWVRQAPGKGLEWVSYISPSGGFTNYADSVKGRFTISRDNSKNTLYLQMNSLRAEDTAVYYCARWDYNSGWYYDHWGQGTLVTVSS
VL: DIQMTQSPDTLSLSPGERATLSCRASQSVNSRNLAWYQQKPGQAPRLLIYGASTRATGIPDRFSGSVSGTEFTLTISSLQPDDFATYYCQQYNSYFTFGQGTKLEIK
notes: also called ATCC PTA-6259
B4: anti-HMG1 antibody S2 (antibody, V domains shown)
VH: EVQLLESGGGLVQPGGSLRLSCAASGFTFSGYMMVWVRQAPGKGLEWVSRISPSGGQTGYADSVKGRFTISRDNSKNTLYLQMNSLRAEDTAVYYCAREEGGSYGAFDIWGQGTMVTVSS
VL: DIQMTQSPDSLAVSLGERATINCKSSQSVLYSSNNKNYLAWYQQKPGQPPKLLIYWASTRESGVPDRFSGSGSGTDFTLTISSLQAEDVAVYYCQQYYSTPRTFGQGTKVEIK
notes: also called ATCC PTA-6142

Key:
[1] = biological target: T1, HMG1 B Box peptide amino acids 150-183; assay: ELISA, wells coated with HMG1 B Box peptide 150-183 at 10 ug/ml
T1 peptide: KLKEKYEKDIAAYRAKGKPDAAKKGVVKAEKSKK
Method in brief: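 Biotinylated peptides captured on avidin-coated wells (1% BSA block, 30 min, room temperature), then antibodies added in serial dilution from 10 μg/ml; for the coated-peptide format, plates blocked with 4% milk/PBS 1 h at 37 °C. Bound antibody detected with anti-human IgG-HRP and TMB, absorbance at 450 nm.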

[2] = biological target: T2, recombinant HMG1 purified from E. coli as a calmodulin binding protein (CBP) fusion protein (human, UniProt A9RA84 1-215 (Papio anubis entry)); assay: BIAcore, mAb immobilized, HMG1 injected, steady-state model
T2 construct: also called rHMG1; rHMGB1
T2 sequence: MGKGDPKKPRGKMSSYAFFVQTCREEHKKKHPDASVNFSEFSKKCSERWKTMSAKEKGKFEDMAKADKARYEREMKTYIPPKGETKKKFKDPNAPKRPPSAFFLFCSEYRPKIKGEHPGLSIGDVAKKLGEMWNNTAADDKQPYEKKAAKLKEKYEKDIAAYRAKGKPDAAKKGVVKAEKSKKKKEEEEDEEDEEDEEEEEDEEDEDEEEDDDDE
Method in brief: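 Each mAb amine-coupled to a CM5 chip beside a reference flow cell. Twofold serial dilutions of recombinant HMG1 were injected at slow flow, and surfaces regenerated with 1M NaCl-50 mM NaOH. Affinity was derived from binding curves fitted to a steady-state model.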

[3] = biological target: T3, HMG2 (UniProt P40673 2-209, limits assumed); assay: ELISA, wells coated with HMGB2 at 5 ug/mL, OD 490
T3 construct: also called HMGB2; HMBG2
T3 sequence (looked up): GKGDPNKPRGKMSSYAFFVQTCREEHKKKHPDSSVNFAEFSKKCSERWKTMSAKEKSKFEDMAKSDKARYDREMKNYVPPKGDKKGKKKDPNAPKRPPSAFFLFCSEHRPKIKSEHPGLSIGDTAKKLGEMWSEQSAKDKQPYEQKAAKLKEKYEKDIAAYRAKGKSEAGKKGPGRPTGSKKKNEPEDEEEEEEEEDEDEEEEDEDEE
Method: Binding to HMG1 vs. HMG2: Ultra high-binding ELISA plates (ThermoLab systems, #3855) were coated with either 5 ug/mL of Calf thymus HMGB1 or HMBG2 diluted in 10 mM Phosphate buffered saline (PBS), pH 7.2 and incubate overnight at 4 degrees. The plates were washed twice with Ca and Mg free PBS and 100 microliters of anti-HMGB1 antibody diluted in 10 mM PBS, pH 7.2+1% bovine serum albumin (BSA) to a final concentration of 10 ug/mL was added to each well and the plates were incubated 1 hour at room temperature. The wells were washed three times with 100 μl of PBS, pH 7.2. HRP labeled goat-anti-human IgG Kappa-chain (KPL, #14-10-10) and goat-anti-human IgG Lambda-chain (KPL, #14-10-11) were diluted in 10 mM PBS+1% BSA 1:1000 and 100 μl were added to each well and incubated for 1 hour at room temperature. The wells were then washed three times with 100 μl of PBS, pH 7.2. OPD substrate (Pierce chemical company, #34006) was prepared following the manufacturers instructions and 100 μl of prepared substrate was added to each well and the plates incubated at room temperature in the dark for 20-30 minutes. The reaction was stopped with the addition of 100 μl of 2M H₂SO₄, and the plates read on a plate reader at a wavelength of 490 nm.

[4] = biological target: T4, HMG1 purified from bovine (calf) thymus (bovine, UniProt P10103 2-215); assay: ELISA, wells coated with calf thymus HMGB1 at 5 ug/mL, antibody at 10 ug/mL, anti-human kappa/lambda-HRP, OD 490
T4 construct: also called Calf thymus HMGB1; thymus HMG1
T4 sequence (looked up): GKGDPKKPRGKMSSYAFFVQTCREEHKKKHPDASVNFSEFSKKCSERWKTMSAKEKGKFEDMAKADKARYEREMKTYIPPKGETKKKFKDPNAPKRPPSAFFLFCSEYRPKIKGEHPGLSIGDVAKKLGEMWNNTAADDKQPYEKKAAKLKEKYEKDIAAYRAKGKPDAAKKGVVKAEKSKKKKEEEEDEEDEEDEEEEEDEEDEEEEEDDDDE
Method in brief: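 Calf thymus HMGB1 or HMGB2 coated at 5 ug/mL in 10 mM PBS pH 7.2 overnight at 4 °C; anti-HMGB1 antibody added at 10 ug/mL final in PBS + 1% BSA, 1 h at room temperature. Detection with HRP anti-human kappa plus lambda (1:1000, 1 h), OPD substrate 20-30 min in the dark, H₂SO₄ stop, absorbance 490 nm.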

[5] = biological target: T2, recombinant HMG1 purified from E. coli …; assay: ELISA, rHMG1 preincubated with antibody, coated RAGE-Fc
Method: HMG1 binding to RAGE-Ig by ELISA: 50 μl/well of RAGE-Fc fusion protein at 5 μg/ml in PBS was added to each well of an ELISA plate and incubated overnight at 4° C. The plate was then blocked with 200 μl of 5% milk at 37° C. for 1 hr and washed 3× with PBS/Tween. 50 μl/well of diluted HMGB1 solution. For dose curves, HMGB1 concentrations started at 4 ug/ml in PBS. For antibody blocking the HMGB1 was preincubated in another plate with human anti-HMG1 antibodies or buffer, then transferred to the RAGE-coated plate. The plates were then incubated at room temperature for 2 hours and washed 3×. To detect any HMG1 bound to the immobilized RAGE-Fc a mixture of biotinylated mouse anti-HMG1 mAbs (10D4, 4H11, 3E10 and 5C12) each at 1 ug/ml, total Ab: 4 ug/ml, were added to each well and the plate was incubated for 1 hour at room temperature. The plate was then washed and Strepavidin-HPR was added to each well and incubated 15 min. The plate was then washed 3× and blotted dry. 100 μl of TMB developing agent was added and the plate read at 650 nm. Values were calculated as percent of inhibition with HMG1 alone equal to 0% inhibition. The data in FIG. 9 and summarized in Table 1 represent the average of two separate experiments.

Row | Binder | binding result [1] | Kd [2] [nM] | binding result [3] | binding result [4] | percent inhibition of HMG1 binding to RAGE-Fc [5] [%]
1 | B1 | no binding (tested: 10 ug/ml (log 1.00)) | 30 | no binding (tested: 10 ug/mL (not on the sheet)) | binds | –
2 | B2 | no binding (tested: 10 ug/ml (log 1.00)) | 39 | no binding (tested: 10 ug/mL (not on the sheet)) | binds | ≥ 35
3 | B3 | – | 23 | – | binds | ≥ 35
4 | B4 | no binding (tested: 10 ug/ml (log 1.00)) | 36 | no binding (tested: 10 ug/mL (not on the sheet)) | binds | ≥ 35
